How the values were obtained:
[1] = LC-MS assay of GH3 conjugation of 2,4-D with Asp or Glu; type: biochemical; details: 5 mM 2,4-D substrate; for kcat (hrs−1) 2,4-D-Asp: conjugation of 2,4-D with Asp by recombinant GH3 protein, 2,4-D-Asp product by LC-MS; for kcat (hrs−1) 2,4-D-Glu: conjugation of 2,4-D with Glu by recombinant GH3 protein, 2,4-D-Glu product by LC-MS
Method in brief: (§1)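 N-His-tagged GH3 homologs expressed in E. coli C41(DE3) and Ni-NTA purified (44 to 164 μg/mL) were incubated 3 hours at 30° C. in 20 mM Tris-HCl pH 8.0, 5 mM MgCl2, 1 mM DTT with 5 mM each of auxin, ATP and Asp or Glu. Conjugates were quantified by LC-MS against standards.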

[2] = LC-MS assay of GH3 conjugation of IAA with Asp or Glu; type: biochemical; details: for kcat (hrs−1) IAA-Asp: conjugation of IAA with Asp by recombinant GH3 protein, IAA-Asp product by LC-MS; for kcat (hrs−1) IAA-Glu: conjugation of IAA with Glu by recombinant GH3 protein, IAA-Glu product by LC-MS
Method in brief: as §1

B1: ZmACI46148: GH3 protein, accession ACI46148 (protein)
chain: MAVMAEVVSTTGAALRSPASQPLPAAVKNADAEKLQFIEEMTSNVDAVQERVLGEILARNAGTEYLAKYGLAAATTDRATFRAKVPMATYEDLQPYIRRIADGDRSPILSGHPVSEFLTSSGTSAGERKLMPTIEDELNRRQLLYSLQMPVMNLYVPGMDKGKALHFLFVKSETKTPGGLAARPVLTSYYKSNHFKNRPFDAYNNYTSPTAAILCADAFQSMYAQMLCGLCQRQDVLRVGAVFASGLLRAIRFLQLNWEQLAEDIEAGSLTPRVTDPSVREAVAGILRADPELAALVRSECSKGDWAGIITRIWPSTKYLDVIVTGAMAQYIPTLKYYSGGLPMACTMYASSECYFGLNLRPMCDPSEVSYTLMPNMCYFEFLPMDSAAASGGDASKLVDLARVEVGREYELVITTYAGLNRYRVGDVLQVTGFHNTAPQFRFVRRKNVLLSIESDKTDEAELQRAVERASALLRPHGAAVVEYTSQAYTKSIPGHYVIYWELLAKGPAGGAAVGEGTLERCCLEMEEALNTVYRQSRVADGSIGPLEIRVVRPGTFEELMDYAISRGASINQYKVPRCVTFPPIIELLDSRVVSSHFSPALPHWTPGQRSDSD
modifications: Zea mays
[1]
  kcat (hrs−1) 2,4-D-Asp: 2.278 h⁻¹
  kcat (hrs−1) 2,4-D-Glu: 0.401 h⁻¹
[2]
  kcat (hrs−1) IAA-Asp: 869.016 h⁻¹
  kcat (hrs−1) IAA-Glu: 49.496 h⁻¹

B2: ZmACI46149: GH3 protein, accession ACI46149 (protein)
chain: MAVMAEVVSTTGAALRSPASQQPAAAGAAKGTDAEKLQFIEDMTSNVDAVQERVLGEILARNADTEYLAGRCGLAGATDRATFRAKVPMATYEDLQPYIRRIADGDRSPILSGHPVSEFLTSSGTSGGERKLMPTIEDELNRRQLLYSLQMPVMNLYVPGMDKGKALHFLFVKSETKTPGGLAARPVLTSYYKSNHFRNRPFDAYNNYTSPTAAILCADAFQSMYAQMVCGLCQRQDVLRVGAVFASGLLRAIRFLQLNWEQLADDIEAGSLTPRVTDPSVREAVAGILRPDPAVAELVRSECSGGDWAGIVTRIWPNTKYLDVIVTGAMAQYIPTLKHYSGGLPMACTMYASSECYFGLNLRPMCDPSEVSYTLMPNMCYFEFLPMGGAVDASQLVDLARVERGREYELVITTYAGLNRYRVGDVLQVTGFHNSAPQFRFVRRKNVLLSIESDKTDEAELQRAVERASALLRPHGAAVVEYTSQAYTKSIPGHYVVYWELLQAKGGAAVDGETLEGCCLEMEEALNAVYRQSRVADGSIGPLEIRVVRPGTFEELMDYAISRGASINQYKVPRCVTFPPIIELLDSRVVSSHLSPALPHWTAGQRSDSD
modifications: Zea mays
[1]
  kcat (hrs−1) 2,4-D-Asp: 2.892 h⁻¹
  kcat (hrs−1) 2,4-D-Glu: 0.355 h⁻¹
[2]
  kcat (hrs−1) IAA-Asp: 684.072 h⁻¹
  kcat (hrs−1) IAA-Glu: 26.467 h⁻¹

B3: SbEES19769: GH3 protein, accession EES19769 (protein)
chain: MPEAPVTTMREAATAAAAAAVPETHRELLEYIERVTAGAAQVQRRVLAEILAQNAPAEYLRRLGVAGDAPGAVDAFRRAAPLVTYEDILPDVLRIANGDTSPILSGKPIREFLTSSGTSGGERKLMPAIADEMDRRSLLYSLLMPVMSQAVPGLDKGKCMYLYFVKAESRTPGGHPARPVLTSFYRSRHFLERPHDPYTVYTSPDEAILCVDAYQSMYAQLLCGLVHRADVLRVGAVFASGFLRAIRFLEKHWQRLCRDIRTGTLDAEAVTDRAVRAAVEQRVLLRADPALADAVEAECARTSWQGIIRRVWPNTKYIDVIVTGAMAQYIPQLEFYGGGLPLTCTMYASSESYFGINLNPMCKPSEVAYTLIPTMCYFEFLPLPQPGDDDAGEPDQRDLVDLVDVKLGHEYELVVTTYSGLYRYRVGDVLRVAGFKNQAPMFNFLRRKNVVLSIDADKTDEAELHAAVSGAVQHLAPFGASLVEYTSYADAGTIPGHYVLFWELRLRAAAAAGATPTPVPASVFEDCCLAVEEALNSVYRQGRAADRSIGPLEIRVVSDGTFDKLMDYALARGASINQYKAPRCVRPGPVVELLDGRVQASYFSPKCPKWSPGVGKQWSSDAAAAAKKAAAGGSNGGGGGGGAVVVA
modifications: Sorghum bicolor
[1]
  kcat (hrs−1) 2,4-D-Asp: 18.287 h⁻¹
  kcat (hrs−1) 2,4-D-Glu: 4.970 h⁻¹
[2]
  kcat (hrs−1) IAA-Asp: 903.124 h⁻¹
  kcat (hrs−1) IAA-Glu: 50.990 h⁻¹

B4: SbEES01578: GH3 protein, accession EES01578 (protein)
chain: MPEAPTTKTTLPAGGFGPGAHREALEFIEHVTANAGKVQRRVLAEILTQNAPAEYLRRYGVPGGSADAVEAFRRVVPLVTYEGLQPDILRIASGDTSPILSGKPISEFLTSSGTSGGERKLMPTIADELDRRSLLYSLQMPVMSQSVPGLDKGKAMYLLFVKAESRTPGGLVARPVLTSYYRSRQFLERPHDPYTEYTSPNEAILCVDSYQSMYTQLLCGLVHRADVLRVGAVFASGFLRAVRFLEKHWPRLCRDIRTGTLDPEITDRAVRDAVVGRVLRGANPALADEIEAECAGPSWEGIIRRLWPRTKYIDVIVTGAMSQYIPTLEFYGGGLPLACTMYASSECYFGLNLKPMCKPGDVAYTLIPTMCYFEFLPLQCSDGKAEPSHRDLVGLVDVKLGHEYELVVTTYSGLYRYRVGDVLRVAGFKNEAPMFKFIRRQNVALSIDSDKTDETELHAAVSGAVQHLAPFGASLVEYTSYADAATIPGHYVLFWELRAGSTAVPASVFEDCCLSVEEALNSVYRQCRACDKSIGPLEIRVVSEGTFDKLMDYAISRGASINQYKAPRCVRPGPVVELLDARVQAKYFSPKCPKWSPGNKQWNAASNGDA
modifications: Sorghum bicolor
[1]
  kcat (hrs−1) 2,4-D-Asp: 0.765 h⁻¹
  kcat (hrs−1) 2,4-D-Glu: 0.250 h⁻¹
[2]
  kcat (hrs−1) IAA-Asp: 4419.692 h⁻¹
  kcat (hrs−1) IAA-Glu: 162.572 h⁻¹

B5: ZmACL52529: GH3 protein, accession ACL52529 (protein)
chain: MSTSHARVKSDSNNGRTRTCDDGGSSGTSGGERKLMPAIADEMDRRSLLYSLLMPVMSQAVPGLDRGRCMYLYFVKAESRTPGGHPARPVLTSFYRSRHFLERPHDPYTVHTSPDEAVLCVDAYQSMYAQLLCGLVHRADVLRVGAVFASGFLRAIRFLEKHWQRLCRDLRRGALGAEVTDRSVRAAVARVLRADPALADAVEAECARPSWQGIIRRVWPGTKYIDVIVTGAMAQYIPTLEFYGGGLPLTCTMYASSESYFGINLNPMCKPSEVAYTLIPTMCYFEFLPLPQPGPGGTDDADPDHRDLVDLVDVKLGHEYELVVTTYSGLYRYRVGDVLRVAGFKNQAPMFKFLRRKNVVLSIDSDKTDEAELHAAVSGAVQHLAPFGASLVEYTSYADAGTIPGHYVLFWELRLRAGDVPVPVPASVFEDCCLAVEEALNSVYRQGRAADRSIGPLEIRVVSDGTFDRLMDYALARGASINQYKVPRCVHPGPVVELLDGRVQASYVSPKCPKWSPGGGKQWSSDAAAKKPAAAAGSNNGGGAVVA
modifications: Zea mays
[1]
  kcat (hrs−1) 2,4-D-Asp: 0.000 h⁻¹
  kcat (hrs−1) 2,4-D-Glu: 0.000 h⁻¹
[2]
  kcat (hrs−1) IAA-Asp: 0.000 h⁻¹
  kcat (hrs−1) IAA-Glu: 2.149 h⁻¹

— patent US20150351390A1, “COMPOSITIONS AND METHODS FOR AUXIN-ANALOG CONJUGATION” (PIONEER HI-BRED INTERNATIONAL, INC., priority 2012, published 2015)
